From patent US20240010733A1

Molecular target: soluble CLEC2D antigen, ecto-domain (Q72-V191, H176C) with C-term Histidine tag (human) (UniProt Q9UHP7)
Assay: flow cytometry on CLEC2D-coated magnetic beads

Sequence of UniProt Q9UHP7 (Q9UHP7 72-191 H176C limits assumed): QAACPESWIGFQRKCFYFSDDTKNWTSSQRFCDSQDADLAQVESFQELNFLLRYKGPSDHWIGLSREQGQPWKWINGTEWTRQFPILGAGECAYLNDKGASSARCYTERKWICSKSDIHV

efficiency of conjugation (antigen-coated beads stained by the antibody): > 90%
Substance: commercial P4500/anti-CLEC2D antibody
